Patent US20080293626A1, “Pigment epithelium-derived factor as a therapeutic agent for vascular leakage” (The Johns Hopkins University, priority 2003, published 2008)
Entries after “also recorded” stand apart in the source; their conditions may differ. Values belong to the molecule of their own block, whether it stands above or below them.

Tests used:
[1] = tested on: VEGF-induced retinal vascular permeability; test: Fluorescein angiography after intravitreal co-injection with VEGF164; type: in vivo, mouse (C57BL/6J); settings: mouse eye, co-injected intravitreally with 12.6 ng VEGF164 at 20-fold molar excess; 20 h after injection; qualitative
Description: (§1) Intravitreal injection to assess bioactivity on vascular permeability. C57BL/6J mice, 6-8 weeks of age, were cared for in accordance with the Association for Research in Vision and Opthalmology Statement for the Use of Animals in Ophthalmic and Vision Research. For anesthesia, each received intramuscularly 20 mg/kg ketamine, 20 mg/kg xylazine and 800 mg/kg urethane in 0.3-0.4 ml of phosphate buffered saline (PBS, 1.06 mM KH2PO4, 0.15 M NaCl and 3.00 mM Na2HPO4, pH 7.4). Under 10× magnification, 1 μl of murine VEGF164 (12.6 ng/μl in PBS; R&D Systems, Minneapolis, Minn.) was delivered through a 20° beveled glass pipette, with a tip diameter of 13-20 μm. The contralateral eye received an equal volume of PBS alone or PBS containing 12.6 ng VEGF164, and a 20-fold molar excess of PEDF (232 ng), ACT (278 ng), HSP47 (278 ng), PEDFpep (28.1 ng), ACTpep (29.7 ng), or CHIMERApep (28.2 ng).
Fluorescein angiograghy. Twenty hours after intravitreal injections, each pupil was dilated with one drop of 1% atropine sulfate. After intraperitoneal injection of 0.1 ml of 25% fluorescein, successive retina photographs were taken with a Kowa Genesis camera. The first photograph was taken within 20 seconds of the intraperitoneal fluorescein injection. Time elapsed between the alternating right and left eye retinal photographs averages 10 seconds. Fluorescein leakage manifests as indistinct vascular borders progressing to diffusely hazy fluorescence.

[2] = tested on: VEGF-induced retinal vascular permeability; test: Evans blue assay after intravitreal co-injection with VEGF164; type: in vivo, mouse (C57BL/6J); settings: mouse eye, co-injected intravitreally with VEGF164 at 20-fold molar excess; for inhibition of VEGF-induced retinal vascular permeability (Evans blue-albumin): 24 h, VEGF-induced increase = 100%, mean ±SE
Description: as §1
Evans Blue assay. We used a modification of the method described by Qaum et al.^44 Briefly, each mouse received intravitreal injections of proteins or peptides, and intrajugular injection of Evans blue^44. After 2 hours, 200 μl blood was taken and assayed for Evans blue. The retina was extruded and dissected free from any vitreous or adherent retinal pigment epithelium.
To assess the Evans blue-albumin concentration, the optical density of the retinal extract and plasma samples were measured at 620 nm and 740 nm. The retinal vasopermeability was calculated as the quantity of retinal Evans blue normalized to retinal dry weight, plasma Evans blue concentration, and circulation time by using the formula as described^32,44. Since all animals in this report had 1 eye injected with VEGF alone, the retinal permeability in the VEGF injected eyes was normalized to the VEGF injected eye in the set of animals where 1 eye received PBS. The VEGF-induced increase in permeability was taken to be 100%.

[3] = tested on: VEGF164-stimulated bovine retinal capillary endothelial cell migration; settings: read-out: IC50, inhibition of VEGF-stimulated endothelial cell migration; BRCEC, VEGF164-stimulated, 8 hours at 37° C.
Description: BRCEC migration assay. Bovine retinal capillary endothelial cells (BRCEC) were isolated and cultured as described 45. […] Cells, between the fifth and ninth passage, were starved overnight in MEM with D-Val and 2% fetal bovine serum. Polycarbonate filters (10 μm pore-size, PVPF; Osmonics Inc., Minnetonka, Minn.) were coated with 100 μg/ml collagen. Quadruplicates with test samples in MEM D-Val (28 μl), and 10^4 cells in MEM D-Val (50 μl) were placed in the lower and upper wells, respectively, of the microchemotaxis chamber (NeuroProbe, Gaithersburg, Md.). After incubating 8 hours at 37° C., the non-migrated cells on the upper surface of the filter were removed, and the filters were stained with Harris' hematoxylin. For each of the test samples, one 400× field per quadrant of each of the quadruplicates was counted. From the total cell number in the 4 fields, the mean and standard error of the quadruplicate wells were calculated. Baseline migration equaled the number of migrated cells with MEM D-Val without any added proteins or peptides. The difference between baseline and the number of migrated cells with VEGF added equals maximal total migration.

B1: ACT: α1-antichymotrypsin, a classical serpin used as control protein (protein, UniProt P01011 24-423, looked up)
Alpha-1-antichymotrypsin: HPNSPLDEENLTQENQDRGTHVDLGLASANVDFAFSLYKQLVLKAPDKNVIFSPLSISTALAFLSLGAHNTTLTEILKGLKFNLTETSEAEIHQSFQHLLRTLNQSSDELQLSMGNAMFVKEQLSLLDRFTEDAKRLYGSEAFATDFQDSAAAKKLINDYVKNGTRGKITDLIKDLDSQTMMVLVNYIFFKAKWEMPFDPQDTHQSRFYLSKKKWVMVPMMSLHHLTIPYFRDEELSCTVVELKYTGNASALFILPDQDKMEEVEAMLLPETLKRWRDSLEFREIGELYLPKFSISRDYNLNDILLQLGIEEAFTSKADLSGITGARNLAVSQVVHKAVLDVFEEGTEASAATAVKITLLSALVETRTIVRFNRPFLMIIVPTDTQNIFFMSKVTNPKQA
- effect on VEGF-induced fluorescein leakage / vascular permeability (fluorescein angiography) [1]: no effect
- inhibition of VEGF-induced retinal vascular permeability (Evans blue-albumin) [2]: 3.4±18.2%

B2: HSP47: heat shock protein 47, collagen-specific chaperone protein from the serpin family, control protein (protein, UniProt P50454 19-418, looked up)
Serpin H1: AEVKKPAAAAAPGTAEKLSPKAATLAERSAGLAFSLYQAMAKDQAVENILVSPVVVASSLGLVSLGGKATTASQAKAVLSAEQLRDEEVHAGLGELLRSLSNSTARNVTWKLGSRLYGPSSVSFADDFVRSSKQHYNCEHSKINFRDKRSALQSINEWAAQTTDGKLPEVTKDVERTDGALLVNAMFFKPHWDEKFHHKMVDNRGFMVTRSYTVGVMMMHRTGLYNYYDDEKEKLQIVEMPLAHKLSSLIILMPHHVEPLERLEKLLTKEQLKIWMGKMQKKAVAISLPKGVVEVTHDLQKHLAGLGLTEAIDKNKADLSRMSGKKDLYLASVFHATAFELDTDGNPFDQDIYGREELRSPKLFYADHPFIFLVRDTQSGSLLFIGRLVRPKGDKMRDEL
- effect on VEGF-induced fluorescein leakage / vascular permeability (fluorescein angiography) [1]: no effect
- inhibition of VEGF-induced retinal vascular permeability (Evans blue-albumin) [2]: 19.4±22.3%

- IC50 [3]: 0.5 nM
B3: PEDF: Recombinant human pigment epithelium-derived factor, 418-amino acid 50-kDa glycoprotein, produced in 293 cells (SEQ ID NO: 1) (protein, listed as Homo sapiens)
chain: MQALVLLLCIGALLGHSSCQNPASPPEEGSPDPDSTGALVEEEDPFFKVPVNKLAAAVSNFGYDLYRVRSSMSPTTNVLLSPLSVATALSALSLGAEQRTESIIHRALYYDLISSPDIHGTYKELLDTVTAPQKNLKSASRIVFEKKLRIKSSFVAPLEKSYGTRPRVLTGNPRLDLQEINNWVQAQMKGKLARSTKEIPDELSLLLLGVAHFKGQWVTKFDSRKTSLEDFYLDEERTVRVPMMSDPKAVLRYGLDSDLSCKIAQLPLTGSMSLIFFLPLKVTQNLTLIEESLTSEFIHDIDRELKTVQAVLTVPKLKLSYEGEVTKSLQEMKLQSLFDSPDFSKITGKPIKLTQVEHRAGFEWNEDGAGTTPSPGLQPAHLTFPLDYHLNQPFIFVLRDTDTGALLFIGKILDPRGP
modifications: glycosylated
- effect on VEGF-induced fluorescein leakage / vascular permeability (fluorescein angiography) [1]: not observed; also recorded: inhibits
- inhibition of VEGF-induced retinal vascular permeability (Evans blue-albumin) [2]: 95.6±21.2%
- effect on VEGF-induced vascular permeability by Evans blue assay ([2]; qualitative statement): obliterated
